The values that follow come from patent publication US7514534.

T1: MMP-26 (human)
T1 sequence: ASDF

B1: A04 (antibody, human IgG4, V domains shown)
VH: EVQLLESGGGLVQPGGSLRLSCAASGFTFSEYNMAWVRQAPGKGLEWVSRIGSSGGKTKYADSVKGRFTISRDNSKNTLYLQMNSLRAEDTAVYYCARDEAPDYGDDAEAFDIWGQGTMVTVSS
VL: QSALTQPPSASGTPGQRVTISCSGGYSNMGSNYAHWYQQVPGTAPKLLIYNNNQRPSGVPDRFSGSKSGTSASLAISGLRSEDEADYYCAAWDENLSGPVFGTGTKVTVLG
B2: D6-orig (antibody, human IgG4, V domains shown)
VH: EVQLLESGGGLVQPGGSLRLSCAASGFTFSMYSMRWVRQAPGKGLEWVSSIYPSGGSTEYADSVKGRFTISRDNSKNTLYLQMNSLRAEDTAVYYCAREGGENDYWGQGTLVTVSS
VL: DIQMTQSPLSLSASVGDRVAITCRASQSIDTYLNWYQQKPGKAPKLLIYAASKLEDGVPSRFSGSGTGTDFTLTIRSLQPEDFASYFCQQSYSSPGITFGPGTKVEIKR
B3: C01 (antibody, human IgG4, V domains shown)
VH: EVQLLESGGGLVQPGGSLRLSCAASGFTFSNYGMSWVRQAPGKGLEWVSVIGPSGGITMYADSVKGRFTISRDNSKNTLYLQMNSLRAEDTAVYYCATGSSSGWYPNFDYWGQGTLVTVSS
VL: DIQMTQSPSTLSASVGDRVTITCRASQSIGNWLAWYQQKPGEAPHLLIYQASSLEGGVPSRFSGSGSGTKFTLNISSLQPDDFATYYCQQYNSYSYTFGQGTKLDIKR
B4: A1-orig (antibody, human IgG4, V domains shown)
VH: EVQLLESGGGLVQPGGSLRLSCAASGFTFSYYRMSWVRQAPGKGLEWVSSIGPSGGDTLYADSVKGRFTISRDNSKNTLYLQMNSLRAEDTAVYYCARSFSSGPYYFDYWGQGTLVTVSS
VL: QSVLTQPPSASGTPGQRVIISCSGSSSNIGSHYVHWYQQVPGTAPKLLIYRNGQRPSGVPDRFSGFKSGTSASLAISGLRSEDEANYYCATWDDSVLFGGGTTLTVLG
B5: A11 (antibody, human IgG4, V domains shown)
VH: EVQLLESGGGLVQPGGSLRLSCAASGFTFSWYTMMWVRQAPGKGLEWVSRISPSGGHTLYADSVKGRFTISRDNSZNTLYLQMNSLRAEDTAVYYCARDTWDDYYDSSGYYNDFDYWGQGTLVTVSS
VL: QSALTQPPSVSLAPGQTARITCGGNNIGTKSVHWYQQKPGQAPVLVVYDDSDRPSGIPERFSGSNSGNTATLTISRVEAGDEADYYCQVWDSGSDHQVFGGGTKLTVLG
B6: A01 (antibody, human IgG4, V domains shown)
VH: EVQLLESGGGLVQPGGSLRLSCAASGFTFSAYNMFWVRQAPGKGLEWVSGIGSSGGIAPYADSVKGRFTISRDNSKNTLYLQMNSLRAEDTAVYYCARAAYEVENWFDPWGQGTLVTVSS
VL: DIQMTQSPGTLSLSPGERATLSCRASQIVRSTYLAWYQQKPGQAPRLLIYGTSSRATGVPDRFSGSGSGTDFTLTISGLEPEDFALYYCQRYGDSPPITFGQGTRLEITR
B7: B04 (antibody, human IgG4, V domains shown)
VH: EVQLLESGGGLVQPGGSLRLSCAASGFTFSFYWMMWVRQAPGKGLEWVSGISSSGGFTKYADSVKGRFTISRDNSKNTLYLQMNSLRAEDTAVYYCARETSRRAFDIWGQGTMVTVSS
VL: DIQMTQSPSSVSASVGDRVTITCRASQGISKSLAWYQQKPGKAPKLLVYGAFSLESGVPSRFSGTGAGTDFILTISRLQPEDFATYYCQQANSFPLTFGGGTKVEIKR
B8: B06 (antibody, human IgG4, V domains shown)
VH: EVQLLESGGGLVQPGGSLRLSCAASGFTFSQYFMKWVRQAPGKGLEWVSSISPSGGLTQYADSVKGRFTISRDNSKNTLYLQMNSLRAEDTAVYYCARGGIEAPGSPSDYWGQGTLVTVSS
VL: DIQMTQSPSFLSASVGDRVTITCRASQGISSYLAWYQQKPGKAPKLLIYAASTLQSGVPSRFSGSGSGTDFTLTISSLEPEDFATYYCQESYSTPFFTFGPGTKVDIRR
B9: B10 (antibody, human IgG4, V domains shown)
VH: EVQLLESGGGLVQPGGSLRLSCAASGFTFSSYAMMWVRQAPGKGLEWVSWIVPSGGTTFYADSVKGRFTISRDNSKNTLYLQMNSLRAEDTAVYYCARGLYRWGQGTLVTVSSASTKGPSVFP
VL: DIQMTQSPSSLSASVGDRVTIACRTSQNVNRYLNWYQHKLGQAPKLLIYGATILQSGVPSRFRGSGSGTDFILTITNLQPEDFAVYYCQQTYSPPLTFGQGTKAEFKGTVAAPSV
B10: H6-orig (antibody, human IgG4, V domains shown)
VH: EVQLLESGGGLVQPGGSLRLSCAASGFTFSQYWMNWVRQAPGKGLEWVSGIGPSGGITYYADSVKGRFTISRDNSKNTLYLQMNSLRAEDTAVYYCARGEEDGYNSDYWGQGTLVTVSS
VL: QSELTQPPSASGSPGQSVTISCTGTSSDVGAYNYVSWYQQHPGKAPKLIIYEVNKRPSGVPDRFSASKSGNTASLTVSGLQAEDEADYYCNSYAGSNSLIFGGGTKLTVLG

In this assay the target is T1, MMP-26 (human). Put plainly: cell-based or functional assay.
B1 came in with a % Inhibition of JEG-3 cell invasion, 5 µg/ml (first test) of 6% and a % Inhibition of JEG-3 cell invasion, 25 µg/ml (first test) of 27%.

Take B2: the % Inhibition of JEG-3 cell invasion, 1 µg/ml (further test) is 42%; the % Inhibition of JEG-3 cell invasion, 5 µg/ml (first test) was determined as 41%; the % Inhibition of JEG-3 cell invasion, 5 µg/ml (further test) was found to be 55%; the % Inhibition of JEG-3 cell invasion, 25 µg/ml (first test) came out at 52%. For the same molecule, the % Inhibition of JEG-3 cell invasion, 25 µg/ml (further test) came out at 70% and the % Inhibition of JEG-3 cell invasion, 50 µg/ml (further test) came to 35%.

With B3, the % Inhibition of JEG-3 cell invasion, 1 µg/ml (further test) was -2%; the % Inhibition of JEG-3 cell invasion, 5 µg/ml (first test) was 43%; the % Inhibition of JEG-3 cell invasion, 5 µg/ml (further test) came out at 16%; the % Inhibition of JEG-3 cell invasion, 25 µg/ml (first test) amounted to 34%. This molecule had a % Inhibition of JEG-3 cell invasion, 25 µg/ml (further test) of 21% and a % Inhibition of JEG-3 cell invasion, 50 µg/ml (further test) of 42%.

For the molecule B4, the % Inhibition of JEG-3 cell invasion, 1 µg/ml (further test) was determined as 53%; the % Inhibition of JEG-3 cell invasion, 5 µg/ml (first test) amounted to 40%; the % Inhibition of JEG-3 cell invasion, 5 µg/ml (further test) worked out at 58%; the % Inhibition of JEG-3 cell invasion, 25 µg/ml (first test) was found to be 66%. The % Inhibition of JEG-3 cell invasion, 25 µg/ml (further test) worked out at 64% and the % Inhibition of JEG-3 cell invasion, 50 µg/ml (further test) is 74%.

In the case of B5, the % Inhibition of JEG-3 cell invasion, 1 µg/ml (further test) turned out to be 51%; the % Inhibition of JEG-3 cell invasion, 5 µg/ml (first test) was found to be 28%; the % Inhibition of JEG-3 cell invasion, 5 µg/ml (further test) stood at 54%; the % Inhibition of JEG-3 cell invasion, 25 µg/ml (first test) is 56%. In addition, the % Inhibition of JEG-3 cell invasion, 25 µg/ml (further test) amounted to 59% and the % Inhibition of JEG-3 cell invasion, 50 µg/ml (further test) came out at 73%.

Regarding B6, the % Inhibition of JEG-3 cell invasion, 1 µg/ml (further test) came out at 30%; the % Inhibition of JEG-3 cell invasion, 5 µg/ml (first test) worked out at 19%; the % Inhibition of JEG-3 cell invasion, 5 µg/ml (further test) is 47%; the % Inhibition of JEG-3 cell invasion, 25 µg/ml (first test) came out at 51%. This molecule came in with a % Inhibition of JEG-3 cell invasion, 25 µg/ml (further test) of 54% and a % Inhibition of JEG-3 cell invasion, 50 µg/ml (further test) of 70%.

Take B7: the % Inhibition of JEG-3 cell invasion, 5 µg/ml (first test) is 36% and the % Inhibition of JEG-3 cell invasion, 25 µg/ml (first test) turned out to be 14%.

In turn, B8 had a % Inhibition of JEG-3 cell invasion, 5 µg/ml (first test) of 34% and a % Inhibition of JEG-3 cell invasion, 25 µg/ml (first test) of 30%.

Take B9: the % Inhibition of JEG-3 cell invasion, 1 µg/ml (further test) turned out to be 6%; the % Inhibition of JEG-3 cell invasion, 5 µg/ml (first test) worked out at 48%; the % Inhibition of JEG-3 cell invasion, 5 µg/ml (further test) stood at 5%; the % Inhibition of JEG-3 cell invasion, 25 µg/ml (first test) turned out to be 26%. The % Inhibition of JEG-3 cell invasion, 25 µg/ml (further test) amounted to 11% and the % Inhibition of JEG-3 cell invasion, 50 µg/ml (further test) came to 22%.

For B10, the % Inhibition of JEG-3 cell invasion, 1 µg/ml (further test) amounted to 49%; the % Inhibition of JEG-3 cell invasion, 5 µg/ml (first test) amounted to 24%; the % Inhibition of JEG-3 cell invasion, 5 µg/ml (further test) was determined as 52%; the % Inhibition of JEG-3 cell invasion, 25 µg/ml (first test) worked out at 50%. Moreover, the % Inhibition of JEG-3 cell invasion, 25 µg/ml (further test) was 57% and the % Inhibition of JEG-3 cell invasion, 50 µg/ml (further test) stood at 39%.
